Experimental data reported in patent publication US8349583B2, “Distinguishing cells in a sample by inactivating extracellular enzyme before releasing intracellular enzyme” (priority 2005, dated 2013).

Legend:
[1] = biological target: bioluminescent system (luciferin/luciferase) (Photinus pyralis, UniProt P08659); assay: Trypsin control: effect of trypsin on the bioluminescent system; format: biochemical
Protocol: (§1) Experimental work used adenylate kinase-generated ATP to drive a luciferin/luciferase activity, giving results in RLUs as a quantitative measure of initial ATP levels. All AK assays were performed at pH 7.5, and 37° C. Results of the assay were read at ambient temperature.
In preliminary experiments, the effect of trypsin on the bioluminescent system was assessed. Samples of trypsin at different concentrations, diluted in Mueller-Hinton (MH^+) broth, were spiked with ATP.

[2] = test system: E. coli; assay: Trypsin digestion of intracellular bacterial AK, E. coli; format: cell-based; conditions: for Mean RLU: assayed immediately
Protocol: as §1
(§2) Concentrations of 10^4 and 10^5 cfu/ml E. coli and E. faecalis where spiked into MH broth containing 1000, 200 and 0 (control) U/ml trypsin. These were assayed immediately.

[3] = test system: E. faecalis; assay: Trypsin digestion of intracellular bacterial AK, E. faecalis; format: cell-based; conditions: assayed immediately
Protocol: as §1, §2

[4] = test system: AK in lysed blood; assay: AK reduction by trypsin over time, saponin-lysed blood; format: biochemical; conditions: 10^−3 dilution of lysed blood, 5000, 1000, 200 U/ml trypsin, 37° C., up to 1 hour
Protocol: (§3) Purified AK (B. stearothermophilus) or a 10^−3 dilution of saponin-lysed blood was incubated for 1 hour at 37° C. in 5000, 1000, 200 and 0 (control) U/ml trypsin diluted in MH broth (‘trypsin/MH’). Aliquots were assayed at time 0, 15 minutes, 30 minutes and 1 hour.

[5] = biological target: Purified AK (B. stearothermophilus) (Geobacillus stearothermophilus, UniProt P27142); assay: AK reduction by trypsin over time, purified bacterial AK; format: biochemical; conditions: 5000, 1000, 200 U/ml trypsin, 37° C., up to 1 hour; compared with lysed blood AK
Purified AK (B. stearothermophilus), sequence (P27142 whole entry): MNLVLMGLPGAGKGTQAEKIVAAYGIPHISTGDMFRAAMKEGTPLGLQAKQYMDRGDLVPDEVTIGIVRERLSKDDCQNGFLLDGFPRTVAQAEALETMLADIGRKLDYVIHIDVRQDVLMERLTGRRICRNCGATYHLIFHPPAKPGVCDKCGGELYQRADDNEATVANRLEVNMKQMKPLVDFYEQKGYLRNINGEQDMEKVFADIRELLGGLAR
Protocol: as §3

[6] = test system: bacterial adenylate kinase; assay: AK reduction by different proteases over time for different organisms; format: biochemical; conditions: 37° C., 10 to 120 minutes; trypsin 1000, papain 10, proteinase K 2.5, chymotrypsin 1 U/ml
Protocol: • 1. Bacteria were scraped from plates and inoculated in approximately 20 ml of broth only. These were incubated overnight at 37° C. • 2. 10× stocks of the enzymes were prepared in broth only: • a. 10 mg of 16,000 U/mg Trypsin added to 16 ml of broth to give 10,000 U/ml (10×) stock. • b. 25 mg of 4 U/mg Papain added to 1 ml of broth to give 100 U/ml (10×) stock. • c. 10 mg of 7.5 U/mg proteinase K added to 3 ml of broth to give a 25 U/ml (10×) stock. • d. 10.5 ul of 239 U/ml chymotrypsin added to 239.5 ul of broth to give a 10 U/ml stock. • 3. The inoculums were then centrifuged at approximately 14030 RCF for one hour. • 4. The supernatant was then taken, tested for adenylate kinase activity (described below), and diluted with broth only if needed to give about 10^5 cpm/ml. • 5. The supernatant was then assayed for adenylate kinase activity at time point zero in triplicate and averaged. • 6. 1.5 ml solutions of the supernatants were prepared with the correct concentration of enzyme, or broth for control. These were incubated at 37° C. • 7. Samples were then taken and assayed in triplicate for adenylate kinase activity at 10, 30, 60 and 120 minutes. • 8. The triplicates were averaged, and normalised by dividing by the time point zero average. Adenylate Kinase Assay (AK Only No Cells) • 1. […] added to a cuvette. • 2. 50 μl of reagent 1 (ADP only; no lysis agent) added and vortexed briefly. • 3. After 5 minutes, the cuvette was placed into a luminometer. • 4. 50 μl of reagent 2 (dilution and luciferin/luciferase) firmly added directly to the sample. • 5. RLU read immediately.
The results are shown in FIG. 19 (S. epidermis), 20 (S. aureus), 21 (E. coli), 22 (E. faecalis), 23 (P. aeruginosa) and 24 (MRSA). Trypsin is still the protease of choice due to its consistency with both Gram +ve and Gram −ve bacteria.

[7] = test system: organisms (11 species); assay: Effect of trypsin on organisms (bacterial growth); format: cell-based; conditions: trypsin 1000 and 200 U/ml, 10^3 cfu/ml, 37° C., 3 hours
Protocol: FIGS. 4 to 14 show bacterial growth in the presence of AK. Bacteria were: (4) E. coli; (5) E. faecalis; (6) P. aeruginosa; (7) S. aureus; (8) K. pneumoniae; (9) E. cloacae; (10) K. oxytoca; (11) P. vulgaris; (12) A. baumanii; (13) S. enteritidis; and (14) S. narcescens.
To assess whether trypsin affects bacterial growth, 10^3 cfu/ml organisms were spiked into 1000, 200 and 0 (control) U/ml trypsin/MH samples. These mixtures were incubated at 37° C. for 3 hours, and aliquots were assayed at time 0, 1, 2 and 3 hours.

[8] = test system: AK in saponin-lysed blood; assay: Trypsin digestion of AK in various concentrations of lysed blood; format: biochemical; conditions: 1000 U/ml trypsin
Protocol: Saponin-lysed blood was serially diluted and mixed with 1000 or 200 U/ml trypsin/MH. The mixtures were incubated at 37° C. for 4 hours, and aliquots assayed at time 0, 1, 2, 3 and 4 hours.

[9] = test system: lysed blood AK background; assay: Lysed blood background with trypsin, negative (no organisms); format: biochemical; conditions: 10^−1 lysed blood, 1000 U/ml trypsin
Protocol: (§4) Approximately 10^2 cfu/ml organisms were spiked into a 10^−1 dilution of lysed blood in MH, containing 1000 U/ml trypsin. This was incubated at 37° C. for 4 hours, and aliquots were assayed at time 0, 1, 2, 3 and 4 hours.

[10] = test system: E. coli; assay: Organism growth against lysed blood background using trypsin, E. coli; format: cell-based; conditions: E. coli 10^2 cfu/ml, 10^−1 lysed blood, 1000 U/ml trypsin
Protocol: as §4

[11] = test system: P. aeruginosa; assay: Organism growth against lysed blood background using trypsin, P. aeruginosa; format: cell-based; conditions: P. aeruginosa 10^2 cfu/ml, 10^−1 lysed blood, 1000 U/ml trypsin
Protocol: as §4

[12] = test system: E. faecalis; assay: Organism growth against lysed blood background using trypsin, E. faecalis; format: cell-based; conditions: E. faecalis 10^2 cfu/ml, 10^−1 lysed blood, 1000 U/ml trypsin
Protocol: as §4

bioluminescent system (luciferin/luciferase), sequence (P08659 whole entry): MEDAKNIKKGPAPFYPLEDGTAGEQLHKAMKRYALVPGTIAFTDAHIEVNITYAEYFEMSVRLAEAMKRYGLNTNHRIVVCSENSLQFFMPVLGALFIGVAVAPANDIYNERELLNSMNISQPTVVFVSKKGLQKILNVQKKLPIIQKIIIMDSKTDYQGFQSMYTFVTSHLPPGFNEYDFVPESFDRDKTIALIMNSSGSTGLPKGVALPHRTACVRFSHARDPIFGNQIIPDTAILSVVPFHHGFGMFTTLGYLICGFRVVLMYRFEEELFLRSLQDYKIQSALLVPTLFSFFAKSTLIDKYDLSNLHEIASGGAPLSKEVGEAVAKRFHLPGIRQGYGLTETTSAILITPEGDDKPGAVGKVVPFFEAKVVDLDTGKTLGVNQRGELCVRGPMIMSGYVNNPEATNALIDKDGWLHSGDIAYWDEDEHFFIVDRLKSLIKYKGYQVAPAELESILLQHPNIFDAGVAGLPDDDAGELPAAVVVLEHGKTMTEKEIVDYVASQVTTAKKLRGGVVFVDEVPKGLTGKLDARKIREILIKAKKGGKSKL

B1: trypsin (protein, UniProt P00761 9-231, looked up)
Trypsin: IVGGYTCAANSIPYQVSLNSGSHFCGGSLINSQWVVSAAHCYKSRIQVRLGEHNIDVLEGNEQFINAAKIITHPNFNGNTLDNDIMLIKLSSPATLNSRVATVSLPRSCAAAGTECLISGWGNTKSSGSSYPSLLQCLKAPVLSDSSCKSSYPGQITGNMICVGFLEGGKDSCQGDSGGPVVCNGQLQGIVSWGYGCAQKNKPGVYTKVCNYVNWIQQTIAAN
Mean RLU ([1]; +ATP, trypsin 200 U/ml in MH broth): 68,036 RLU | Mean RLU ([1]; +ATP, trypsin 1000 U/ml in MH broth): 64,005 RLU | Mean RLU ([1]; +ATP, trypsin 5000 U/ml in MH broth): 81,276 RLU | Mean RLU ([1]; No ATP, trypsin 200 U/ml in MH broth): 646 RLU | Mean RLU ([1]; No ATP, trypsin 1000 U/ml in MH broth): 538 RLU | Mean RLU ([1]; No ATP, trypsin 5000 U/ml in MH broth): 414 RLU | background ATP-generating activity associated with trypsin ([1]; no ATP): little or no background ATP-generating activity | effect on bioluminescence signal ([1]; trypsin 5000 U/ml): boosted | effect on the bioluminescence reaction ([1]; trypsin levels ≦1000 U/ml): minimal/no effect on the bioluminescence reaction | Mean RLU ([2]; E. coli 10^4 cfu/ml, trypsin 200 U/ml): 7,197 RLU | Mean RLU ([2]; E. coli 10^4 cfu/ml, trypsin 1000 U/ml): 12,694 RLU | Mean RLU ([2]; E. coli 10^5 cfu/ml, trypsin 200 U/ml): 65,452 RLU | Mean RLU ([2]; E. coli 10^5 cfu/ml, trypsin 1000 U/ml): 106,552 RLU | AK signal from lysed bacteria lost during the AK reaction due to trypsin digestion ([2]; E. coli and E. faecalis, trypsin 200 and 1000 U/ml): 10-20% | Mean RLU ([3]; E. faecalis 10^4 cfu/ml, trypsin 200 U/ml): 13,310 RLU | Mean RLU ([3]; E. faecalis 10^4 cfu/ml, trypsin 1000 U/ml): 17,369 RLU | Mean RLU ([3]; E. faecalis 10^5 cfu/ml, trypsin 200 U/ml): 87,059 RLU | Mean RLU ([3]; E. faecalis 10^5 cfu/ml, trypsin 1000 U/ml): 103,959 RLU | digestion of AK in lysed blood by trypsin [4]: digested rapidly | degradation of purified bacterial AK by trypsin [5]: does not occur as dramatically or rapidly as the AK from lysed blood | degradation of AK extracted from different organisms [6]: degraded the AK | effect on bacterial growth [7]: minimal (if any) effect on the organisms | reduction of background ([8]; 10^−1 dilution of blood, 4 hours): 25,000 fold | background RLU after trypsin digestion ([8]; 10^−1 dilution of blood, 4 hours, from approximately 100 million RLU): 4,000 RLU | time in which the vast majority of AK digestion occurs [8]: ≤ 2 h | Mean RLU ([9]; 1 hr): 7,864 RLU | Mean RLU ([9]; 2 hrs): 3,148 RLU | Mean RLU ([9]; 3 hrs): 2,001 RLU | Mean RLU ([9]; 4 hrs): 1,572 RLU | Mean RLU ([9]; Time 0): overload | Mean RLU ([10]; 1 hr): 9,605 RLU | Mean RLU ([10]; 2 hrs): 7,460 RLU | Mean RLU ([10]; 3 hrs): 41,121 RLU | Mean RLU ([10]; 4 hrs): 353,541 RLU | Mean RLU ([10]; Time 0): overload | Mean RLU ([11]; 1 hr): 8,852 RLU | Mean RLU ([11]; 2 hrs): 3,582 RLU | Mean RLU ([11]; 3 hrs): 3,332 RLU | Mean RLU ([11]; 4 hrs): 8,123 RLU | Mean RLU ([11]; Time 0): overload | Mean RLU ([12]; 1 hr): 10,099 RLU | Mean RLU ([12]; 2 hrs): 4,939 RLU | Mean RLU ([12]; 3 hrs): 15,587 RLU | Mean RLU ([12]; 4 hrs): 106,762 RLU | Mean RLU ([12]; Time 0): overload

B2: proteinase K (protein, UniProt P06873 106-384, looked up)
Proteinase K: AAQTNAPWGLARISSTSPGTSTYYYDESAGQGSCVYVIDTGIEASHPEFEGRAQMVKTYYYSSRDGNGHGTHCAGTVGSRTYGVAKKTQLFGVKVLDDNGSGQYSTIIAGMDFVASDKNNRNCPKGVVASLSLGGGYSSSVNSAAARLQSSGVMVAVAAGNNNADARNYSPASEPSVCTVGASDRYDRRSSFSNYGSVLDIFGPGTSILSTWIGGSTRSISGTSMATPHVAGLAAYLMTLGKTTAASACRYIADTANKGDLSNIPFGTVNLLAYNNYQA
notes: protease, 7.5 U/mg, used at 2.5 U/ml
degradation of AK extracted from different organisms [6]: degraded the AK in a similar manner to trypsin

B3: Papain (protein, UniProt P00784 134-345, looked up)
Papain: IPEYVDWRQKGAVTPVKNQGSCGSCWAFSAVVTIEGIIKIRTGNLNEYSEQELLDCDRRSYGCNGGYPWSALQLVAQYGIHYRNTYPYEGVQRYCRSREKGPYAAKTDGVRQVQPYNEGALLYSIANQPVSVVLEAAGKDFQLYRGGIFVGPCGNKVDHAVAAVGYGPNYILIKNSWGTGWGENGYIRIKRGTGNSYGVCGLYTSSFYPVKN
notes: protease, 4 U/mg, used at 10 U/ml
degradation of AK extracted from different organisms [6]: degraded the AK in a similar manner to trypsin
